Ki, stoichiometry N and Km data for five compounds are collected here from article PMC9835603, “A conserved SH3-like fold in diverse putative proteins tetramerizes into an oxidoreductase providing an antimicrobial resistance phenotype” (Philosophical Transactions of the Royal Society B: …, 2023).

For series [1], the target named is T1, DfrB-H5 (Methylobacterium pseudosasicola, UniProt A0A1I4V6W3).
T1 construct: gene SAMN05192568_10896; full-length 365-residue protein, N-terminal His6 tag
Briefly: dihydrofolate reductase activity assay at […] nm with purified enzyme; Ki from IC50 by Cheng-Prusoff. Format: biochemical.

Series [2] addresses His6-DfrB1 (type B dihydrofolate reductase DfrB1). Kind of series: SEC-MALS; SEC-MALLS; Superdex 200 10/300 GL for DfrB-H5, Superdex 75 10/300 GL for DfrB1, 0.4 ml/min.
Series [3] shares this target. Briefly: negative-stain electron microscopy; purified protein from a single gel filtration peak, 40 ng/ul, uranyl formate stain, two-dimensional classification.
Series [4] relates to NC(=O)C1=CN([C@@H]2O[C@H](COP(=O)(O)OP(=O)(O)OC[C@H]3O[C@@H](n4cnc5c(N)ncnc54)[C@H](OP(=O)(O)O)[C@@H]3O)[C@@H](O)[C@H]2O)C=CC1. Kind of series: steady-state kinetics (KM) with purified enzyme. Format: biochemical, Escherichia coli. To be noted: varied: cofactor.
Series [5] has as its target DfrB-H5 (distant DfrB homologue from Methylobacterium pseudosasicola) (Methylobacterium pseudosasicola). Kind of series: negative-stain electron microscopy; purified protein from a single gel filtration peak, 40 ng/ul, uranyl formate stain, two-dimensional classification.
For series [6] the target is unchanged. The series is described as above. This is another data set of the same source.

Values joined by “and” are separate entries in the source; they are usually repeats but may differ in a detail not shown here. Identical values can stand only once. Like-named read-outs stand apart in the source and are kept apart here.

For `O=C(O)c1ccc2[nH]c(-c3ccc(OCCCCCOc4ccc(-c5nc6cc(C(=O)O)ccc6[nH]5)cc4)cc3)nc2c1` [compound 1, 2,2′-[1,5-pentanediylbis(4-oxyphenylene)]-bis-1H-benzimidazole-5-carboxylic acid], the Ki in series [1] (read-out: 1 / Ki) was 12 ± 6 µM.
As for `CC1(C)Nc2nc(N)[nH]c(=O)c2N=C1C(=O)NCCN1CCC(SC[C@H]2O[C@@H](n3cnc4c(N)ncnc43)[C@H](O)[C@@H]2O)CC1` [compound 2, 2-amino-N-(2-(4-((((2S,3S,4R,5R)-5-(6-amino-9H-purin-9-yl)-3,4-dihydroxytetrahydrofuran-2-yl)methyl)thio)piperidin-1-yl)ethyl)-7,7-dimethyl-4-oxo-3,4,7,8-tetrahydropteridine-6-carboxamide], the Ki in series [1] (read-out: 2 / Ki) was determined as 30 ± 10 µM.
Take “His6-DfrB1 (type B dihydrofolate reductase DfrB1) (enzyme)”: the stoichiometry N in series [2] and in series [3] was 4 each time.
Turning to DfrB1 (Escherichia coli; Y69L), the Km in series [4] was 170 ± 20 µM.
For the compound “DfrB-H5 (distant DfrB homologue from Methylobacterium pseudosasicola) (enzyme)”, the stoichiometry N is 4 in series [5]; 2 and 3 in series [6].
